The values that follow come from US20250186614A1, “COMPACT DRUG RESPONSIVE DOMAINS FOR REGULATION OF FUNCTION/ABUNDANCE AND DELIVERY OF POLYPEPTIDE PAYLOADS” (OBSIDIAN THERAPEUTICS, INC., priority 2022, published 2025).

Sequences and labels used below:
B1: FKBP-265: FKBP13 DRD-AcGFP construct of Table 10 (protein)
chain: HCPIKSRKGDVLHMHYTGKLEDGTEFDSSLPRNQPFVFSLGWGRRIKGWDQGLLGMCEGEKRKLVIPSELGYGERGWPPKIPGGATLVFEVELLKIER
modifications: Description of sequence: Construct Name: FKBP-265; Mutation(s): Q72R T82W Q84R A117W DRD V85R
B2: FKBP-277: FKBP13 DRD-AcGFP construct of Table 10 (protein)
chain: B1 chain with Q34R, W42T, R44E, K95Y
modifications: Description of sequence: Construct Name: FKBP-277; Mutation(s): Q72R Q74R Q84E A117W V85R K135Y
B3: FKBP-276: FKBP13 DRD-AcGFP construct of Table 10 (protein)
chain: B1 chain with Q34R, W42T, R44E
modifications: Description of sequence: Construct Name: FKBP-276; Mutation(s): Q72R Q74R Q84E A117W V85R
B4: FKBP-278: FKBP13 DRD-AcGFP construct of Table 10 (protein)
chain: B1 chain with Q34R, W42T, R44E, E90F
modifications: Description of sequence: Construct Name: FKBP-278; Mutation(s): Q72R Q74R Q84E A117W V85R E130F
B5: FKBP-279: FKBP13 DRD-AcGFP construct of Table 10 (protein)
chain: B1 chain with Q34R, W42T, R44E, K80I
modifications: Description of sequence: Construct Name: FKBP-279; Mutation(s): Q72R Q74R Q84E A117W V85R K120I
B6: FKBP-282: FKBP13 DRD-AcGFP construct of Table 10 (protein)
chain: B1 chain with Q34W, W42T, R44E
modifications: Description of sequence: Construct Name: FKBP-282; Mutation(s): Q72R Q74W Q84E A117W V85R
B7: FKBP-280: FKBP13 DRD-AcGFP construct of Table 10 (protein)
chain: B1 chain with Q34R, W42T, R44E, K80I, K95Y
modifications: Description of sequence: Construct Name: FKBP-280; Mutation(s): Q72R Q74R Q84E A117W V85R K135Y K120I
B8: FKBP-281: FKBP13 DRD-AcGFP construct of Table 10 (protein)
chain: B1 chain with Q34R, W42T, R44E, K80I, E90F
modifications: Description of sequence: Construct Name: FKBP-281; Mutation(s): Q72R Q74R Q84E A117W V85R E130F K120I
B9: FKBP-283: FKBP13 DRD-AcGFP construct of Table 10 (protein)
chain: B1 chain with Q34W, W42T, R44E, K95Y
modifications: Description of sequence: Construct Name: FKBP-283; Mutation(s): Q72R Q74W Q84E A117W V85R K135Y
B10: FKBP-286: FKBP13 DRD-AcGFP construct of Table 10 (protein)
chain: B1 chain with Q34W, W42T, R44E, K80I, K95Y
modifications: Description of sequence: Construct Name: FKBP-286; Mutation(s): Q72R Q74W Q84E A117W V85R K135Y K120I
B11: FKBP-285: FKBP13 DRD-AcGFP construct of Table 10 (protein)
chain: B1 chain with Q34W, W42T, R44E, K80I
modifications: Description of sequence: Construct Name: FKBP-285; Mutation(s): Q72R Q74W Q84E A117W V85R K120I
B12: FKBP-284: FKBP13 DRD-AcGFP construct of Table 10 (protein)
chain: B1 chain with Q34W, W42T, R44E, E90F
modifications: Description of sequence: Construct Name: FKBP-284; Mutation(s): Q72R Q74W Q84E A117W V85R E130F
B13: FKBP-268: FKBP13 DRD-AcGFP construct of Table 10 (protein)
chain: B1 chain with C2R, W42T, R44E
modifications: Description of sequence: Construct Name: FKBP-268; Mutation(s): Q72R Q84E A117W V85R DRD C42R
B14: FKBP-275: FKBP13 DRD-AcGFP construct of Table 10 (protein)
chain: B1 chain with G9D, W42T, R44E
modifications: Description of sequence: Construct Name: FKBP-275; Mutation(s): Q72R Q84E A117W V85R DRD G49D
B15: FKBP-273: FKBP13 DRD-AcGFP construct of Table 10 (protein)
chain: B1 chain with W42T, R44E, E74G
modifications: Description of sequence: Construct Name: FKBP-273; Mutation(s): Q72R Q84E A117W V85R DRD E114G
B16: FKBP-271: FKBP13 DRD-AcGFP construct of Table 10 (protein)
chain: B1 chain with W42T, R44E, K63R
modifications: Description of sequence: Construct Name: FKBP-271; Mutation(s): Q72R Q84E A117W V85R DRD K103R
B17: FKBP-274: FKBP13 DRD-AcGFP construct of Table 10 (protein)
chain: B1 chain with W42T, R44E, E69K
modifications: Description of sequence: Construct Name: FKBP-274; Mutation(s): Q72R Q84E A117W V85R DRD E109K
B18: FKBP-270: FKBP13 DRD-AcGFP construct of Table 10 (protein)
chain: B1 chain with L12M, W42T, R44E
modifications: Description of sequence: Construct Name: FKBP-270; Mutation(s): Q72R Q84E A117W V85R DRD L52M
B19: FKBP-266 (protein)
chain: B1 chain with D10L, W42T, R44E
modifications: Description of sequence: Construct Name: FKBP-266; Mutation(s): Q72R Q84E A117W V85R DRD D50L
B20: FKBP-267 (protein)
chain: B1 chain with W42T, R44E, M56W
modifications: Description of sequence: Construct Name: FKBP-267; Mutation(s): Q72R Q84E A117W V85R DRD M96W
B21: FKBP-269 (protein)
chain: B1 chain with H13Q, W42T, R44E
modifications: Description of sequence: Construct Name: FKBP-269; Mutation(s): Q72R Q84E A117W V85R DRD H53Q

Changes are numbered by the printed parent chain. Names and notes keep the numbering of the source.

One assay deals with Jurkat cells. As to the kind of experiment: Tacrolimus dose response of FKBP13-AcGFP-mCherry constructs stably transduced into Jurkat cells, GFP MFI by flow cytometry. In kind it is cell-based. Also noted: Basal: unit not given here. As to conditions: FIG. 45; BR1 (Biorep 1). The method, boiled down: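 GFP geometric MFI was read by flow cytometry in mCherry+ cells and curve-fitted against tacrolimus dose. Cells were Jurkat E6-1, lentivirus-transduced with FKBP13-AcGFP-mCherry fusion constructs until 10-25% mCherry-positive on day 5 post-transduction.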
In turn, B1 showed a Basal of 78 and an FC of 53.72.

Staying with this assay, now noted: FIG. 45; BR1 (Biorep 1); at 10 uM.
With B1, the “At 10 uM” value turned out to be 4190.

Still in this assay, the particulars now being: FIG. 45; BR2 (Biorep 2).
As for B1, the Basal was 102 and the FC came out at 41.58.

Staying with this assay, now noted: FIG. 45; BR2 (Biorep 2); at 10 uM.
B1: the “At 10 uM” value was determined as 4241.

Still in this assay, the particulars now being: tacrolimus; FIG. 35.
As to B2, the FC came out at 61.04 and the Peak was determined as 2581.

B3 showed an FC of 7.54 and a Peak of 2859.

B4 displayed an FC of 92.73 and a Peak of 3425.

In the case of B5, the FC came out at 31.33 and the Peak stood at 3302.

Staying with this assay, now noted: tacrolimus; FIG. 36.
In turn, B6 showed an FC of 39.54 and a Peak of 2473.

For B7, the FC worked out at 68.34 and the Peak was 2468.

Consider B8, for which the FC is 77.66 and the Peak stood at 2905.

Turning to B9, the FC is listed as 39.79 and the Peak stood at 1328.

The same assay, now with this note: tacrolimus; FIG. 37.
With B10, the FC was 25.96 and the Peak came to 1089.

B11 returned an FC of 36.71 and a Peak of 2161.

B12 displayed an FC of 58.23 and a Peak of 2441.

The assay is the same for the next values; noted with them: tacrolimus; FIGS. 31 and 32.
B1 registered an FC of 58.

B13 came in with an FC of 18.

The same assay, now with this note: tacrolimus; FIGS. 33 and 34.
The molecule B14 gave an FC of 56.

B15 had an FC of 36.

B16 gave an FC of 19.

B17: the FC came out at 34.

Take B18: the FC amounted to 38.

The assay is the same for the next values; noted with them: tacrolimus; Jurkat cells; Table 13.
On to B1, for which the “Fold Change” value was determined as 53.72.

In the case of B6, the “Fold Change” value is given as 39.54.

In the case of B10, the “Fold Change” value was 25.96.

On to B13, for which the “Fold Change” value is reported as 18.

In the case of B2, the “Fold Change” value is reported as 61.04.

Turning to B14, the “Fold Change” value is given as 56.

On to B11, for which the “Fold Change” value worked out at 36.71.

As for B15, the “Fold Change” value turned out to be 36.

In the case of B19, the “Fold Change” value was 60.

As to B7, the “Fold Change” value amounted to 68.34.

For B3, the “Fold Change” value was determined as 7.54.

Consider B12, for which the “Fold Change” value is reported as 58.23.

Take B8: the “Fold Change” value was 77.66.

Turning to B20, the “Fold Change” value was 67.

In the case of B16, the “Fold Change” value amounted to 19.

Turning to B17, the “Fold Change” value was found to be 34.

Consider B18, for which the “Fold Change” value is recorded as 38.

Regarding B4, the “Fold Change” value was found to be 92.73.

Take B9: the “Fold Change” value stood at 39.79.

Regarding B21, the “Fold Change” value is reported as 44.

Take B5: the “Fold Change” value came out at 31.33.
